Experiment in all cases: BLI
In general terms: BLI is a label-free optical method that tracks binding on a fibre tip over time.

Assay [1] addresses T1, ScWpl1^259–647 N493A N622A L532E (S. cerevisiae, UniProt Q99359 259-647, N493A | N622A | L532E).
T1 sequence (looked up): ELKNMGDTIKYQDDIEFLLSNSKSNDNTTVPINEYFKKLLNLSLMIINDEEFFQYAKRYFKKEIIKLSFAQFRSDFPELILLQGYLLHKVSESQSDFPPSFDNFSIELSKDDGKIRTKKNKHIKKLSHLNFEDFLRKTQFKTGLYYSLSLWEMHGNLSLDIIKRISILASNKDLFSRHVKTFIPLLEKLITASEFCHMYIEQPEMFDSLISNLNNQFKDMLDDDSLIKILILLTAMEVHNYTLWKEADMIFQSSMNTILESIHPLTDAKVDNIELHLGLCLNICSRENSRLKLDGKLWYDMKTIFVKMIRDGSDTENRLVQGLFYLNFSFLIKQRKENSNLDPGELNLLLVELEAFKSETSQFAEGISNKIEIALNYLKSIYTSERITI

Assay [2] addresses T2, ScWpl1^259–647 N493A N622A L577R (S. cerevisiae, UniProt Q99359 259-647, N493A | N622A | L577R).
T2 sequence (looked up): T1 sequence (looked up) with E274L, L319R

Assay [3] concerns the target T3, ScWpl1^259–647 K376Q K377Q K382Q K383Q (S. cerevisiae, UniProt Q99359 259-647, K376Q | K377Q | K382Q | K383Q).
T3 sequence (looked up): T1 sequence (looked up) with K118Q, K119Q, K124Q, K125Q, A235N, E274L, A364N

The target of assay [4] is T4, ScWpl1^259–647 (Wapl domain of Saccharomyces cerevisiae Wpl1), wild type (S. cerevisiae, UniProt Q99359 259-647).
T4 sequence (looked up): T1 sequence (looked up) with A235N, E274L, A364N

Assay [5] deals with T5, ScWpl1^259–647 N493E N622E (S. cerevisiae, UniProt Q99359 259-647, N493E | N622E).
T5 sequence (looked up): T1 sequence (looked up) with A235E, E274L, A364E

Assay [6] deals with T6, ScWpl1^259–647 D271A D272A (S. cerevisiae, UniProt Q99359 259-647, D271A | D272A).
T6 sequence (looked up): T1 sequence (looked up) with D13A, D14A, A235N, E274L, A364N

Residue numbers refer to the chain shown, from its start. Numbers in names are those of the source.

B1: GST-tagged ScSmc3 ATPase head (ScSmc3^AH), wild type (domain or fragment, S. cerevisiae)
chain: MYIKRVIIKGFKTYRNETIIDNFSPHQNVIIGSNGSGKSNFFAAIRFVLSDDYSNLKREERQGLIHQGSGGSVMSASVEIVFHDPDHSMILPSGVLSRGDDEVTIRRTVGLKKDDYQLNDRNVTKGDIVRMLETAGFSMNNPYNIVPQGKIVALTNAKDKERLQLLEDVVGAKSFEVKLKASLKKMEETESGGSGGKVSENFEAVFERLVPRGTAKLIIHRKNDNANDHDESIDVDMDAESNESQNGKDSEIMYTGVSISVSFNSKQNEQLHVEQLSGGQKTVCAIALILAIQMVDPASFYLFDEIDAALDKQYRTAVATLLKELSKNAQFICTTFRTDMLQVADKFFRVKYENKISTVIEVNREEAIGFIRGSNKFAEV
For orientation: Kd means the constant that tells how readily two partners part at equilibrium. Read a low Kd as higher affinity. In general, koff refers to the first-order rate constant of dissociation. As a reminder, the kon is the second-order rate constant of association. Low values mean slow association, high ones fast association. B1: the Kd in assay [1] was 82 nM; in assay [2], 77 nM; in assay [3], 200 nM; in assay [4], 47 nM; in assay [5], 126 nM; in assay [6] it was 167 nM. Besides, the koff amounted to 0.000344 s⁻¹ in assay [1]; 0.000428 s⁻¹ in assay [2]; 0.00056 s⁻¹ in assay [3]; 0.000248 s⁻¹ in assay [4]; 0.000492 s⁻¹ in assay [5]; 0.000395 s⁻¹ in assay [6]. For the same molecule, the kon in assay [1] was found to be 4200 M⁻¹ s⁻¹; in assay [2], 5540 M⁻¹ s⁻¹; in assay [3] it was 2800 M⁻¹ s⁻¹; in assay [4], 5220 M⁻¹ s⁻¹; in assay [5], 3920 M⁻¹ s⁻¹; in assay [6] it was 2370 M⁻¹ s⁻¹.

B2: GST-tagged ScSmc3^AH L163D L166D (domain or fragment, S. cerevisiae)
chain: B1 chain with L163D, L166D
With B2, in assay [4], the affinity, expressed as Kd, was 102 nM; the koff is 0.000597 s⁻¹; the kon stood at 5880 M⁻¹ s⁻¹.

B3: GST-tagged ScSmc3^AH L163A L166A D168A (domain or fragment, S. cerevisiae)
chain: B1 chain with L163A, L166A, D168A
In assay [4], B3 returned a Kd of 104 nM, a dissociation rate constant (koff) of 0.000497 s⁻¹ and a kon of 4770 M⁻¹ s⁻¹.

B4: GST-tagged ScSmc3^AH K112N K113N (domain or fragment, S. cerevisiae)
chain: B1 chain with K112N, K113N
In assay [4], B4 yielded an equilibrium dissociation constant (Kd) of 88 nM, a koff of 0.000431 s⁻¹ and a kon of 4880 M⁻¹ s⁻¹.

The values are drawn from PMC3590988 (The EMBO Journal, 2013).
